# Results taken from patent US20150203577A1 (Chugai, published 2015).
# Substitutions are numbered along the chain they refer to.
# T1: mouse FcγRII extracellular domain with C-terminal His tag (mouse, UniProt P08101 30-210)
# T1 construct: Made on the basis of NCBI NP-034317.1; also called mFcγRII; mFcgRII
# T1 sequence: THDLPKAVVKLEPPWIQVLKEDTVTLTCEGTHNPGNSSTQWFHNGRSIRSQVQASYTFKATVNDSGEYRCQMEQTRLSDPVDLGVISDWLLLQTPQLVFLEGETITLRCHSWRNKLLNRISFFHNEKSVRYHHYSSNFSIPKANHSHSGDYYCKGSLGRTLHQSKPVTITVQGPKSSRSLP
# T2: mouse FcγRIII extracellular domain with C-terminal His tag (mouse, UniProt P08508 31-215)
# T2 construct: Made on the basis of NCBI NP-034318.2; also called mFcγRIII; mFcgRIII
# T2 chain: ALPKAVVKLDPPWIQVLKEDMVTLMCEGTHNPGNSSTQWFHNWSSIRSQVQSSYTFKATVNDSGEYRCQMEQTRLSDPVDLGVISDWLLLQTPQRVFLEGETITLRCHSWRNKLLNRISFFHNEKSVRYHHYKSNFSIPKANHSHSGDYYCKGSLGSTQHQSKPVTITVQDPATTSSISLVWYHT
# B1: H237-MB392/MRAL-k0 (antibody, mouse IgG1, kappa)
# heavy: QVQLQESGPGLVKPSETLSLTCAVSGHSISHDHAWSWVRQPPGEGLEWIGFISYSGITNYNPSLQGRVTISRDNSKNTLYLQMNSLRAEDTAVYYCARSLARTTAMDYWGEGTLVTVSSAKTTPPSVYPLAPGSAAQTNSMVTLGCLVKGYFPEPVTVTWNSGSLSSGVHTFPAVLQSDLYTLSSSVTVPSSTWPSETVTCNVAHPASSTKVDKKIVPRDCGCKPCICEPYEVEDVFIFPPKPKDVLTITLTPKVTCVVVDISKDDPEVQFSWFVDDVEVHTAQTQPREEQFNSTFRSVSELPIMHQDWLNGKEFKCRVNSAAFPAPIEKTISKTKGRPKAPQVYTIPPPKEQMAKDKVSLTCMITDFFPEDITVEWQWNGQPAENYKNTQPIMDTDGSYFVYSKLNVQKSNWEAGNTFTCSVLHEGLHNHHTEKSLSHSPGK
# light: not shown
# notes: copies: 2 + 2
# B2: H237-MB407/MRAL-k0 (antibody, mouse IgG1, kappa)
# heavy: B1 heavy with E229Q, P230A
# light: not shown
# notes: copies: 2 + 2
# B3: H237-MB393/MRAL-k0 (antibody, mouse IgG1, kappa)
# heavy: B1 heavy with P230T, Y231P
# light: not shown
# notes: copies: 2 + 2
# B4: H237-MB401/MRAL-k0 (antibody, mouse IgG1, kappa)
# heavy: B1 heavy with P230W, Y231W
# light: not shown
# notes: copies: 2 + 2
# B5: H237-MB408/MRAL-k0 (antibody, mouse IgG1, kappa)
# heavy: B1 heavy with E229T, P230A
# light: not shown
# notes: copies: 2 + 2
# B6: H237-MB398/MRAL-k0 (antibody, mouse IgG1, kappa)
# heavy: B1 heavy with P230W, Y231P
# light: not shown
# notes: copies: 2 + 2
# B7: H237-MB404/MRAL-k0 (antibody, mouse IgG1, kappa)
# heavy: B1 heavy with E229D, P230A
# light: not shown
# notes: also called M8404; copies: 2 + 2
# B8: H237-MB415/MRAL-k0 (antibody, mouse IgG1, kappa)
# heavy: B1 heavy with E229I, P230D
# light: not shown
# notes: copies: 2 + 2
# B9: H237-MB413/MRAL-k0 (antibody, mouse IgG1, kappa)
# heavy: B1 heavy with E229T, P230V
# light: not shown
# notes: copies: 2 + 2
# B10: H237-MB394/MRAL-k0 (antibody)
# heavy: B1 heavy with P230T, Y231A
# light: not shown
# notes: Printed M8394, read as MB394; also called M8394; copies: 2 + 2
# B11: H237-MB417/MRAL-k0 (antibody, mouse IgG1, kappa)
# heavy: B1 heavy with E229Q, P230D
# light: not shown
# notes: copies: 2 + 2
# B12: H237-MB405/MRAL-k0 (antibody, mouse IgG1, kappa)
# heavy: B1 heavy with E229I, P230A
# light: not shown
# notes: copies: 2 + 2
# B13: H237-MB414/MRAL-k0 (antibody, mouse IgG1, kappa)
# heavy: B1 heavy with E229D, P230D
# light: not shown
# notes: copies: 2 + 2
# B14: H237-MB395/MRAL-k0 (antibody, mouse IgG1, kappa)
# heavy: B1 heavy with P230T, Y231N
# light: not shown
# notes: copies: 2 + 2
# B15: H237-MB411/MRAL-k0 (antibody, mouse IgG1, kappa)
# heavy: B1 heavy with E229P, P230V
# light: not shown
# notes: copies: 2 + 2
# B16: H237-MB416/MRAL-k0 (antibody, mouse IgG1, kappa)
# heavy: B1 heavy with E229P, P230D
# light: not shown
# notes: copies: 2 + 2
# B17: H237-MB399/MRAL-k0 (antibody, mouse IgG1, kappa)
# heavy: B1 heavy with P230W, Y231A
# light: not shown
# notes: copies: 2 + 2
# B18: H237-MB396/MRAL-k0 (antibody, mouse IgG1, kappa)
# heavy: B1 heavy with P230T, Y231W
# light: not shown
# notes: copies: 2 + 2
# B19: H237-MB400/MRAL-k0 (antibody, mouse IgG1, kappa)
# heavy: B1 heavy with P230W, Y231N
# light: not shown
# notes: copies: 2 + 2
# B20: H237-MB406/MRAL-k0 (antibody, mouse IgG1, kappa)
# heavy: B1 heavy with E229P, P230A
# light: not shown
# notes: copies: 2 + 2
# B21: H237-MB402/MRAL-k0 (antibody, mouse IgG1, kappa)
# heavy: B1 heavy with P230W
# light: not shown
# notes: copies: 2 + 2
# B22: H237-MB418/MRAL-k0 (antibody, mouse IgG1, kappa)
# heavy: B1 heavy with E229T, P230D
# light: not shown
# notes: copies: 2 + 2
# B23: H237-MB409/MRAL-k0 (antibody, mouse IgG1, kappa)
# heavy: B1 heavy with E229D, P230V
# light: not shown
# notes: copies: 2 + 2
# B24: H237-MB412/MRAL-k0 (antibody, mouse IgG1, kappa)
# heavy: B1 heavy with E229Q, P230V
# light: not shown
# notes: copies: 2 + 2
# Biological target: T1, mouse FcγRII extracellular domain with …
# Assay: SPR Biacore T200; KD mFcγRIII / KD mFcγRII
I/A (mFcγRII selectivity),relative I/A (mFcγRII selectivity) (mIgG1 = 1),Binder
23.9,17.8,B1
–,16.9,B2
–,16,B3
–,23.7,B4
–,12.5,B5
–,13,B6
37,27.6,B7
–,17.5,B8
–,9.1,B9
–,17.8,B10
–,17.8,B11
–,18.2,B12
–,23.6,B13
–,18.7,B14
–,16.4,B15
–,30.2,B16
–,18.2,B17
22.3,16.6,B18
–,15,B19
–,29.6,B20
23.3,17.4,B21
17.6,13.1,B22
–,18,B23
–,13.7,B24

# Biological target: T2, mouse FcγRIII extracellular domain with …
# Assay: SPR Biacore T200
Kd,relative mFcγRIII-binding activity (mIgG1 = 1),Binder
19.5 nM,14.5,B1
–,9.8,B2
–,5.6,B3
–,6.9,B4
–,13.1,B5
–,3.5,B6
33 nM,8.6,B7
–,9.1,B8
–,11.9,B9
–,7.5,B10
–,10.7,B11
–,8,B12
–,8.1,B13
–,8.2,B14
–,8.1,B15
–,6.3,B16
–,3.9,B17
15.8 nM,17.9,B18
–,5.5,B19
–,6.5,B20
23.6 nM,12,B21
14.1 nM,20,B22
–,10.7,B23
–,8.3,B24

# Biological target: T1, mouse FcγRII extracellular domain with …
# Assay: SPR Biacore T200
Kd,relative mFcγRII-binding activity (mIgG1 = 1),Binder
0.817 nM,257,B1
–,164,B2
–,89.9,B3
–,162,B4
–,163,B5
–,45.8,B6
0.891 nM,236,B7
–,159,B8
–,108,B9
–,134,B10
–,190,B11
–,146,B12
–,189,B13
–,154,B14
–,132,B15
–,189,B16
–,71.8,B17
0.707 nM,297,B18
–,81.7,B19
–,191,B20
1.01 nM,208,B21
0.802 nM,262,B22
–,192,B23
–,113,B24
